Experimental data from the supplement of paper PMC9112550, “Optimization of the antimicrobial peptide Bac7 by deep mutational scanning” (BMC Biology, 2022).

system: Escherichia coli TOP10; experiment: shrunken log2 fold change of peptide-encoding DNA abundance (4.5 h post-induction vs induction); higher = less antimicrobial activity (less host growth inhibition); conditions: time post-induction: 4.5 h; library: site-saturation at positions 5, 18, 19, 20
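Further: peptides expressed intracellularly from a pBAD plasmid library in pooled LB shake-flask culture, induced with 0.3% L-arabinose, DNA abundance read by NGS, three biological replicates, DESeq2 with apeglm shrinkage.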

Row | Sequence | shrunken log2 fold change
1 | RRIRDRPPRLPRPRPRPRSAPRP | 0.321
2 | RRIRDRPPRLPRPRPRPRSDPRP | 0.514
3 | RRIRDRPPRLPRPRPRPRSLPRP | -0.0214
4 | RRIRDRPPRLPRPRPRPRWLPRP | 0.511
5 | RRIRDRPPRLPRPRPRPRWPPRP | 0.594
6 | RRIRDRPPRLPRPRPRPRWRPRP | 0.605
7 | RRIRDRPPRLPRPRPRPRYIPRP | -0.356
8 | RRIRDRPPRLPRPRPRPSAHPRP | 0.127
9 | RRIRDRPPRLPRPRPRPSCCPRP | 1.57
10 | RRIRDRPPRLPRPRPRPSCDPRP | -0.0948
11 | RRIRDRPPRLPRPRPRPSEPPRP | 0.06
12 | RRIRDRPPRLPRPRPRPSFDPRP | -0.0842
13 | RRIRDRPPRLPRPRPRPSFMPRP | 0.147
14 | RRIRDRPPRLPRPRPRPSFPPRP | -0.362
15 | RRIRDRPPRLPRPRPRPSGCPRP | 0.0451
16 | RRIRDRPPRLPRPRPRPSIWPRP | 0.262
17 | RRIRDRPPRLPRPRPRPSKKPRP | -0.217
18 | RRIRDRPPRLPRPRPRPSLFPRP | 0.205
19 | RRIRDRPPRLPRPRPRPSLLPRP | 0.05
20 | RRIRDRPPRLPRPRPRPSMGPRP | -0.11
21 | RRIRDRPPRLPRPRPRPSMWPRP | -0.0184
22 | RRIRDRPPRLPRPRPRPSNMPRP | -0.0872
23 | RRIRDRPPRLPRPRPRPSRGPRP | 0.386
24 | RRIRDRPPRLPRPRPRPSRTPRP | 0.208
25 | RRIRDRPPRLPRPRPRPSTAPRP | 0.314

Row | Sequence | shrunken log2 fold change
26 | RRIRDRPPRLPRPRPRPSVHPRP | -0.258
27 | RRIRDRPPRLPRPRPRPSWIPRP | -0.454
28 | RRIRDRPPRLPRPRPRPSWSPRP | -0.369
29 | RRIRDRPPRLPRPRPRPSWTPRP | -0.274
30 | RRIRDRPPRLPRPRPRPSYLPRP | -0.233
31 | RRIRDRPPRLPRPRPRPTADPRP | 0.133
32 | RRIRDRPPRLPRPRPRPTEKPRP | 0.0633
33 | RRIRDRPPRLPRPRPRPTFTPRP | 0.347
34 | RRIRDRPPRLPRPRPRPTIPPRP | 0.0494
35 | RRIRDRPPRLPRPRPRPTKQPRP | 0.188
36 | RRIRDRPPRLPRPRPRPTLDPRP | 0.784
37 | RRIRDRPPRLPRPRPRPTLQPRP | 0.981
38 | RRIRDRPPRLPRPRPRPTQMPRP | 0.583
39 | RRIRDRPPRLPRPRPRPTSYPRP | -0.189
40 | RRIRDRPPRLPRPRPRPTTEPRP | 0.578
41 | RRIRDRPPRLPRPRPRPTTKPRP | 0.0962
42 | RRIRDRPPRLPRPRPRPTVGPRP | 0.351
43 | RRIRDRPPRLPRPRPRPTVHPRP | 0.231
44 | RRIRDRPPRLPRPRPRPTVYPRP | 0.12
45 | RRIRDRPPRLPRPRPRPTWDPRP | 0.629
46 | RRIRDRPPRLPRPRPRPTWFPRP | 0.295
47 | RRIRDRPPRLPRPRPRPTWIPRP | -0.0164
48 | RRIRDRPPRLPRPRPRPTWSPRP | 0.235
49 | RRIRDRPPRLPRPRPRPTYPPRP | -0.106
50 | RRIRDRPPRLPRPRPRPVADPRP | 0.22

Row | Sequence | shrunken log2 fold change
51 | RRIRDRPPRLPRPRPRPVDGPRP | 0.0169
52 | RRIRDRPPRLPRPRPRPVENPRP | -0.127
53 | RRIRDRPPRLPRPRPRPVERPRP | -0.00663
54 | RRIRDRPPRLPRPRPRPVFPPRP | 0.108
55 | RRIRDRPPRLPRPRPRPVGLPRP | 0.627
56 | RRIRDRPPRLPRPRPRPVHHPRP | 0.0594
57 | RRIRDRPPRLPRPRPRPVKAPRP | 0.026
58 | RRIRDRPPRLPRPRPRPVKCPRP | -0.117
59 | RRIRDRPPRLPRPRPRPVKGPRP | 0.0617
60 | RRIRDRPPRLPRPRPRPVKKPRP | -0.0221
61 | RRIRDRPPRLPRPRPRPVLEPRP | 0.627
62 | RRIRDRPPRLPRPRPRPVLVPRP | 0.0945
63 | RRIRDRPPRLPRPRPRPVMNPRP | -0.343
64 | RRIRDRPPRLPRPRPRPVMVPRP | 0.111
65 | RRIRDRPPRLPRPRPRPVNIPRP | 0.0452
66 | RRIRDRPPRLPRPRPRPVNTPRP | -0.327
67 | RRIRDRPPRLPRPRPRPVPCPRP | 0.0758
68 | RRIRDRPPRLPRPRPRPVPTPRP | 0.247
69 | RRIRDRPPRLPRPRPRPVQCPRP | -0.242
70 | RRIRDRPPRLPRPRPRPVQFPRP | -0.0196
71 | RRIRDRPPRLPRPRPRPVRGPRP | 1
72 | RRIRDRPPRLPRPRPRPVSSPRP | -0.0849
73 | RRIRDRPPRLPRPRPRPVTCPRP | -0.00663
74 | RRIRDRPPRLPRPRPRPVTIPRP | -0.0184
75 | RRIRDRPPRLPRPRPRPVVMPRP | 0.194
